Measured values as given in US20170008949A1 (Hoffmann-La Roche, published 2017).

Legend:
[1] = target: recombinant glycosylated human PAI-1 (active), produced in insect cells (human, UniProt P05121 24-402, glycosylated (sites not given)); assay: cell-based or functional assay
[2] = target: recombinant non-glycosylated human PAI-1 (active), produced in E. coli as N-terminal 6xHis-tagged fusion … (human, UniProt P05121 24-402); assay: cell-based or functional assay
Sequence of recombinant non-glycosylated human PAI-1 (active), produced in E. coli as N-terminal 6xHis-tagged fusion … (P05121 24-402 limits assumed): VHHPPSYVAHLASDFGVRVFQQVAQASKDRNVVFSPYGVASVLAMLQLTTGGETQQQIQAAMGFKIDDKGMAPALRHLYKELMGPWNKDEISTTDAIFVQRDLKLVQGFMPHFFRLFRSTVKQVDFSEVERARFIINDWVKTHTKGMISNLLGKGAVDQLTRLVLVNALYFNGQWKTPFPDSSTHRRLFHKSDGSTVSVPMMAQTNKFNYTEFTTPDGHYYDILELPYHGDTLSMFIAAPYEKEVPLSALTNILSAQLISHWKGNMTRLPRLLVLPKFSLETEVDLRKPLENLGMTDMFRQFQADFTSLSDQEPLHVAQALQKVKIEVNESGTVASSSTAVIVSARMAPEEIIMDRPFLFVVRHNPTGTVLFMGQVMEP

Sequence of recombinant glycosylated human PAI-1 (active), produced in insect cells (P05121 24-402 limits assumed): as above

IC50 (µM) vs. human PAI-1, PAI-1 inhibition assay (residual rPA serine protease activity) [1]: 0.065 µM
IC50 (µM) vs. human PAI-1, PAI-1 inhibition assay (residual rPA serine protease activity) [2]: 0.005 µM
B1: PAI1-0046 (reference PAI-1 latency inducing antibody with a human IgG4 SPLE Fc-region) (antibody, V domains shown)
VH: QVQLVQSGAEVKKPGASVKVSCKASGYTFTNYGMNWVRQAPGQGLEWMGWINTYTGEPTYTDDFKGRFTMTLDTSISTAYMELSRLRSDDTAVYYCAKDVSGFVFDYWGQGTLVTVSS
VL: DIVMTQSPDSLAVSLGERATINCKSSQSLLNIIKQKNCLAWYQQKPGQPPKLLIYWASTRESGVPDRFSGSGSGTDFTLTISSLQAEDVAVYYCQQYYSYPYTFGQGTKLEIKR
